B1: G patch domain and ankyrin repeat-containing protein 1 (Homo sapiens), O95872 (parent)
chain: MSRPLLITFTPATDPSDLWKDGQQQPQPEKPESTLDGAAARAFYEALIGDESSAPDSQRSQTEPARERKRKKRRIMKAPAAEAVAEGASGRHGQGRSLEAEDKMTHRILRAAQEGDLPELRRLLEPHEAGGAGGNINARDAFWWTPLMCAARAGQGAAVSYLLGRGAAWVGVCELSGRDAAQLAEEAGFPEVARMVRESHGETRSPENRSPTPSLQYCENCDTHFQDSNHRTSTAHLLSLSQGPQPPNLPLGVPISSPGFKLLLRGGWEPGMGLGPRGEGRANPIPTVLKRDQEGLGYRSAPQPRVTHFPAWDTRAVAGRERPPRVATLSWREERRREEKDRAWERDLRTYMNLEF
partner: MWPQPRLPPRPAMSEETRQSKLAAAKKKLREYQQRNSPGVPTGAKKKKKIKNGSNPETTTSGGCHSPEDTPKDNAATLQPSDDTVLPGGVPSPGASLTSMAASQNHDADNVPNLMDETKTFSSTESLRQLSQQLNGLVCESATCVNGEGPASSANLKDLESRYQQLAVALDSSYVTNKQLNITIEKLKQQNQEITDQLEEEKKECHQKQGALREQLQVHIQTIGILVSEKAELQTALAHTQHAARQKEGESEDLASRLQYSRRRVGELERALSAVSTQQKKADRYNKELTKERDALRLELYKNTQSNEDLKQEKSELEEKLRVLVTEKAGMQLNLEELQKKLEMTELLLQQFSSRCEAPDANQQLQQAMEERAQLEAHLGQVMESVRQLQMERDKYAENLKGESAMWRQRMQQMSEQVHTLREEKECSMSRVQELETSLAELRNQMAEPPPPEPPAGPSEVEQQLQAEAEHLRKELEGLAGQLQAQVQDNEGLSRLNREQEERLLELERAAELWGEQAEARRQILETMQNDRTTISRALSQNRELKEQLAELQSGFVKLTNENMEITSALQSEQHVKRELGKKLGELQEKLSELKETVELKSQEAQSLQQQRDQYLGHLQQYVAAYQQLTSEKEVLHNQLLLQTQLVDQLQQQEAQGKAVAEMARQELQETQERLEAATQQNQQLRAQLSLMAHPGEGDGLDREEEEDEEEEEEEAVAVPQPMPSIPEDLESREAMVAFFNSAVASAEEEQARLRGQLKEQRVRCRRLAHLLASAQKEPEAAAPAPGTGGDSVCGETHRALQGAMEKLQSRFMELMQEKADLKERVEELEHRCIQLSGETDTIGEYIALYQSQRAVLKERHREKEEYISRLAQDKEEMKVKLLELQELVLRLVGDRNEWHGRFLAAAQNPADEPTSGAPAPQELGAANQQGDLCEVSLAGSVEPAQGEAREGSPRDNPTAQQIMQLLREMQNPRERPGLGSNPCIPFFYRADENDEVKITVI
B2: Transcription factor 19 (Homo sapiens), Q9Y242 (parent)
chain: MLPCFQLLRIGGGRGGDLYTFHPPAGAGCTYRLGHRADLCDVALRPQQEPGLISGIHAELHAEPRGDDWRVSLEDHSSQGTLVNNVRLPRGHRLELSDGDLLTFGPEGPPGTSPSEFYFMFQQVRVKPQDFAAITIPRSRGEARVGAGFRPMLPSQGAPQRPLSTFSPAPKATLILNSIGSLSKLRPQPLTFSPSWGGPKSLPVPAPPGEMGTTPSAPPQRNRRKSVHRVLAELDDESEPPENPPPVLMEPRKKLRVDKAPLTPTGNRRGRPRKYPVSAPMAPPAVGGGEPCAAPCCCLPQEETVAWVQCDGCDVWFHVACVGCSIQAAREADFRCPGCRAGIQT
partner: B1 partner
B3: Calcium-binding and coiled-coil domain-containing protein 2 (Homo sapiens), Q13137 (parent)
chain: MEETIKDPPTSAVLLDHCHFSQVIFNSVEKFYIPGGDVTCHYTFTQHFIPRRKDWIGIFRVGWKTTREYYTFMWVTLPIDLNNKSAKQQEVQFKAYYLPKDDEYYQFCYVDEDGVVRGASIPFQFRPENEEDILVVTTQGEVEEIEQHNKELCKENQELKDSCISLQKQNSDMQAELQKKQEELETLQSINKKLELKVKEQKDYWETELLQLKEQNQKMSSENEKMGIRVDQLQAQLSTQEKEMEKLVQGDQDKTEQLEQLKKENDHLFLSLTEQRKDQKKLEQTVEQMKQNETTAMKKQQELMDENFDLSKRLSENEIICNALQRQKERLEGENDLLKRENSRLLSYMGLDFNSLPYQVPTSDEGGARQNPGLAYGNPYSGIQESSSPSPLSIKKCPICKADDICDHTLEQQQMQPLCFNCPICDKIFPATEKQIFEDHVFCHSL
partner: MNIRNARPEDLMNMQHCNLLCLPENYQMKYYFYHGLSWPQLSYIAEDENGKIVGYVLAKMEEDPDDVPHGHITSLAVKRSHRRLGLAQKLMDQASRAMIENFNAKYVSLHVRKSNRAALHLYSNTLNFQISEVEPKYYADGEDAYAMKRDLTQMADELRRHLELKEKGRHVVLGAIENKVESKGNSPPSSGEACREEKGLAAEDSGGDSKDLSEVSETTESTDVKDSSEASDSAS
B4: Cyclic AMP-responsive element-binding protein 3-like protein 1 (Homo sapiens), Q96BA8 (parent)
chain: MDAVLEPFPADRLFPGSSFLDLGDLNESDFLNNAHFPEHLDHFTENMEDFSNDLFSSFFDDPVLDEKSPLLDMELDSPTPGIQAEHSYSLSGDSAPQSPLVPIKMEDTTQDAEHGAWALGHKLCSIMVKQEQSPELPVDPLAAPSAMAAAAAMATTPLLGLSPLSRLPIPHQAPGEMTQLPVIKAEPLEVNQFLKVTPEDLVQMPPTPPSSHGSDSDGSQSPRSLPPSSPVRPMARSSTAISTSPLLTAPHKLQGTSGPLLLTEEEKRTLIAEGYPIPTKLPLTKAEEKALKRVRRKIKNKISAQESRRKKKEYVECLEKKVETFTSENNELWKKVETLENANRTLLQQLQKLQTLVTNKISRPYKMAATQTGTCLMVAALCFVLVLGSLVPCLPEFSSGSQTVKEDPLAADGVYTASQMPSRSLLFYDDGAGLWEDGRSTLLPMEPPDGWEINPGGPAEQRPRDHLQHDHLDSTHETTKYLSEAWPKDGGNGTSPDFSHSKEWFHDRDLGPNTTIKLS
partner: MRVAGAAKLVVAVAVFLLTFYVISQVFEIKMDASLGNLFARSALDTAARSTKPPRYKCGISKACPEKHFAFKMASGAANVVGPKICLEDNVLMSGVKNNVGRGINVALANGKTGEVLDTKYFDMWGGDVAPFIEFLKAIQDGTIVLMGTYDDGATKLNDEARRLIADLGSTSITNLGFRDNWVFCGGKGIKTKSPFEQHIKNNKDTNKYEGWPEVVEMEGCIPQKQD
B5: DNA replication complex GINS protein PSF2 (Homo sapiens), Q9Y248 (parent)
chain: MDAAEVEFLAEKELVTIIPNFSLDKIYLIGGDLGPFNPGLPVEVPLWLAINLKQRQKCRLLPPEWMDVEKLEKMRDHERKEETFTPMPSPYYMELTKLLLNHASDNIPKADEIRTLVKDMWDTRIAKLRVSADSFVRQQEAHAKLDNLTLMEINTSGTFLTQALNHMYKLRTNLQPLESTQSQDF

Variants of: B1
Settings: with goga2_human GOLGA2, Q08379

| Variant | effect of a mutation on the interaction |
| --- | --- |
| MSRPLLITFTPATDPSDLWKDGQQQPQPEKPESTLDGAAALAFYEALIGDESSAPDSQRSQTEPARERKRKKRRIMKAPAAEAVAEGASGRHGQGRSLEAEDKMTHRILRAAQEGDLPELRRLLEPHEAGGAGGNINARDAFWWTPLMCAARAGQGAAVSYLLGRGAAWVGVCELSGRDAAQLAEEAGFPEVARMVRESHGETRSPENRSPTPSLQYCENCDTHFQDSNHRTSTAHLLSLSQGPQPPNLPLGVPISSPGFKLLLRGGWEPGMGLGPRGEGRANPIPTVLKRDQEGLGYRSAPQPRVTHFPAWDTRAVAGRERPPRVATLSWREERRREEKDRAWERDLRTYMNLEF [R41L] | with no effect |

Variants of: B2
Settings: with goga2_human GOLGA2, Q08379

| Variant | effect of a mutation on the interaction |
| --- | --- |
| MLPCFQLLRIGGGRGGDLYTFHPPAGAGCTYRLGHRADLCDVALRPQQEPGLISGIHAELHAEPRGDDWRVSLEDHSSQGTLVNNVRLPRGHRLELSDGDLLTFGPEGPPGTSPSEFYFMFQQVRVKPQDFAAITIPRSRGEARVGAGFRPMLPSQGAPQRPLSTFSPAPKATLILNSIGSLSKLRPQPLTFSPSWGGPKSLPVPAPPGEMGTTPSAPPQRNRRKSVHRVLAELDDESEPPENPPPVLMEPRKKLRVDKAPLTPTGNRRGRPRKYPVSVPMAPPAVGGGEPCAAPCCCLPQEETVAWVQCDGCDVWFHVACVGCSIQAAREADFRCPGCRAGIQT [A279V] | with no effect |

Variants of: B3
Settings: with naa10_human NAA10, P41227

| Variant | effect of a mutation on the interaction |
| --- | --- |
| MEETIKDPPTSAVLLDHCHFSQVIFNSVEKFYIPGGDVTCHYTFTQHFIPRRKDWIGIFRVGWKTTREYYTFMWVTLPIDLNNKSAKQQEVQFKAYYLPKDDEYYQFCYVDEDGVVRGASIPFQFRPENEEDILVVTTQGEVEEIEQHNKELCKENQELKDSCISLQKQNSDMQAELQKKQEELETLQSINKKLELKVKEQKDYWETELLQLKEQNQKMSSENEKMGIRVDQLQAQLSTQEKEMEKLVQGDQDKTEQLEQLKKENDHLFLSLTEQRKDQKKLEQTVEQMKQNETTAMKKQQELMDENFDLSKRLSENEIICNALQRQKERLEGENDLLKRENSRLLSYMGLDFNSLPYQVPTSDEGGARQNPGLAYGNPYSGIQESSSASPLSIKKCPICKADDICDHTLEQQQMQPLCFNCPICDKIFPATEKQIFEDHVFCHSL [P389A] | with no effect |
| MEETIKDPPTSAVLLDHCHFSQVIFNSVEKFYIPGGDVTCHYTFTQHFIPRRKDWIGIFRVGWKTTREYYTFMWVTLPIDLNNKSAKQQEVQFKAYYLPKDDEYYQFCYVDEDGVVRGASIPFQFRPENEEDILVVTTQGEVEEIEQHNKELCKENQELKDSCISLQKQNSDMQAELQKKQEELETLQSINKKLELKVKEQKDYWETELLQLKEQNQKMSSKNEKMGIRVDQLQAQLSTQEKEMEKLVQGDQDKTEQLEQLKKENDHLFLSLTEQRKDQKKLEQTVEQMKQNETTAMKKQQELMDENFDLSKRLSENEIICNALQRQKERLEGENDLLKRENSRLLSYMGLDFNSLPYQVPTSDEGGARQNPGLAYGNPYSGIQESSSPSPLSIKKCPICKADDICDHTLEQQQMQPLCFNCPICDKIFPATEKQIFEDHVFCHSL [E222K] | with no effect |
| MEETIKDPPTSAVLLDHCHFSQVIFNSVEKFYIPGGDVTCHYTFTQHFIPRRKDWIGIFRVGWKTTREYYTFMWVTLPIDLNNKSAKQQEVQFKAYYLPKDDEYYQFCYVDEDGVVRGASIPFQFRPENEEDILVVTTQGEVEEIEQHNKELCKENQELKDSCISLQKQNSDMQAELQKKQEELETLQSINKKLELKVKEQKDYWETELLQLKEQNQKMSSENEKMGIRVDQLQAQLSTQEKEMEKLVQGDQDKTEQLEQLKKENDHLFLSLAEQRKDQKKLEQTVEQMKQNETTAMKKQQELMDENFDLSKRLSENEIICNALQRQKERLEGENDLLKRENSRLLSYMGLDFNSLPYQVPTSDEGGARQNPGLAYGNPYSGIQESSSPSPLSIKKCPICKADDICDHTLEQQQMQPLCFNCPICDKIFPATEKQIFEDHVFCHSL [T273A] | with no effect |

Variants of: B4
Settings: with fam3c_human FAM3C

| Variant | effect of a mutation on the interaction |
| --- | --- |
| MDAVLEPFPADRLFPGSSFLDLGDLNESDFLNNAHFPEHLDHFTENMEDFSNDLFSSFFDDPVLDEKSPLLDMELDSPTPGIQAEHSYSLSGDSAPQSPLVPIKMEDTTQDAEHGAWALGHKLCSIMVKQEQSPELPVDPLAAPSAMAAAATMATTPLLGLSPLSRLPIPHQAPGEMTQLPVIKAEPLEVNQFLKVTPEDLVQMPPTPPSSHGSDSDGSQSPRSLPPSSPVRPMARSSTAISTSPLLTAPHKLQGTSGPLLLTEEEKRTLIAEGYPIPTKLPLTKAEEKALKRVRRKIKNKISAQESRRKKKEYVECLEKKVETFTSENNELWKKVETLENANRTLLQQLQKLQTLVTNKISRPYKMAATQTGTCLMVAALCFVLVLGSLVPCLPEFSSGSQTVKEDPLAADGVYTASQMPSRSLLFYDDGAGLWEDGRSTLLPMEPPDGWEINPGGPAEQRPRDHLQHDHLDSTHETTKYLSEAWPKDGGNGTSPDFSHSKEWFHDRDLGPNTTIKLS [A152T] | with no effect |

Variants of: B5
Settings: with sld5_human GINS4, Q9BRT9
sld5_human GINS4, Q9BRT9, sequence (Q9BRT9 whole entry): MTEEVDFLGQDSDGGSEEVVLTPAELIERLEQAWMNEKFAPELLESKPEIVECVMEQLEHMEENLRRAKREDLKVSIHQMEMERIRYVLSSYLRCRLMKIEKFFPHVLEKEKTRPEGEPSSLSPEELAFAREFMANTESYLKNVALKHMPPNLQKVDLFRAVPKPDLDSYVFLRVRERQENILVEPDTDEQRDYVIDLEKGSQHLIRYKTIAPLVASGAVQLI

| Variant | effect of a mutation on the interaction |
| --- | --- |
| MDAAEVEFLAEKELVTIIPNFSLGKIYLIGGDLGPFNPGLPVEVPLWLAINLKQRQKCRLLPPEWMDVEKLEKMRDHERKEETFTPMPSPYYMELTKLLLNHASDNIPKADEIRTLVKDMWDTRIAKLRVSADSFVRQQEAHAKLDNLTLMEINTSGTFLTQALNHMYKLRTNLQPLESTQSQDF | with no effect |
| MDAAEVEFLAEKELVTIIPNFSLDKIYLIGGDLGPFNPGLPVEVPLWLAINLKQRQKCRLLPPEWMDVEKLEKMRDHERKEETFTPMPSPYYMELTKLLLNHASDNIPKADEIRTLVKDMWDTRIAKLRVSADSFVRQQEAHAKLDNLTLMEINTSGTFLTQALNHMYKLRKNLQPLESTQSQDF | with no effect |
| MDAAEVEFLAEKELVTIIPNFSLDKTYLIGGDLGPFNPGLPVEVPLWLAINLKQRQKCRLLPPEWMDVEKLEKMRDHERKEETFTPMPSPYYMELTKLLLNHASDNIPKADEIRTLVKDMWDTRIAKLRVSADSFVRQQEAHAKLDNLTLMEINTSGTFLTQALNHMYKLRTNLQPLESTQSQDF | with no effect |
| MDAAEVEFLAEKELVTIIPNFSLDKIYLIGGDLGPFNPGLPVEVPLWLAINLKQRQKCRLLPPEWMDVEKLEKMRDHERKEETFTPMPSPYYMELTKLLLNHASDNIPKADEIRTLVKDMWDTRIAKLRVSADSFVRQQEAHAKLDNLTSMEINTSGTFLTQALNHMYKLRTNLQPLESTQSQDF | with no effect |

From IntAct's records for PubMed 31515488
